The record followed here is article PMC9360328, “Tenuous Transcriptional Threshold of Human Sex Determination. I. SRY and Swyer Syndrome at the Edge of Ambiguity”.

Assay in all cases: FRET titration; 15 C, 25 nM DNA; FRET titration: 10 mM potassium phosphate, 10 mM Tris-HCl, 140 mM KCl, 1 mM EDTA, 1 mM DTT, pH 8.4, 15 C, 25 nM DNA; PGE: 10 nM DNA, 20 nM protein, 0.5x TBE, 4
What all share (conditions): protein: recombinant; label: 5'-6-FAM (hexanyl linker) on upper strand; 5'-TAMRA (hexanyl linker) on lower strand; blunt

Data set [1] has as its target SRY HMG box Y72H (Y127H) (Homo sapiens, UniProt Q05066 56-141, Y127H).
In data set [2] the target is SRY HMG box Y72F (Y127F) (Homo sapiens, UniProt Q05066 56-141, Y127F).
The target of data set [3] is SRY HMG box Y72C (Y127C) (Homo sapiens, UniProt Q05066 56-141, Y127C).
Chain of SRY HMG box Y72C (Y127C) (Q05066 56-141 Y127C): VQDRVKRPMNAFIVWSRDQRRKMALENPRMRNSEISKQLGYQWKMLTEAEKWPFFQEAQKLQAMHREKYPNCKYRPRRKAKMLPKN

Chain of SRY HMG box Y72F (Y127F) (Q05066 56-141 Y127F): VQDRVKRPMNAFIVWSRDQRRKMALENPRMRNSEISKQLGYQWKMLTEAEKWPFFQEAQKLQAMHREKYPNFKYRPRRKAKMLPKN
Chain of SRY HMG box Y72H (Y127H) (Q05066 56-141 Y127H): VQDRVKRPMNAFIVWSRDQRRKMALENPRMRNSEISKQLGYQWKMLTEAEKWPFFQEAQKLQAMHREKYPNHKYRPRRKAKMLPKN

B1: 15-bp consensus SRY site, FRET-labeled (dsDNA)
DNA 1: TCGGTGATTGTTCAG
DNA 2: CTGAACAATCACCGA
As for B1, the equilibrium dissociation constant (Kd) in data set [1] turned out to be 19 ± 4 nM; in data set [2], 12 ± 3 nM; in data set [3], 21 ± 5 nM.

As a reminder, the Kd is the free concentration of one partner at which half of the binding sites on the other are occupied at equilibrium, for simple one-to-one binding.
